Reference: patent publication US20260022175A1 (Chugai, published 2026)

Key:
[1] = molecular target: T1, cynomolgus monkey FcγRIIa1 extracellular domain with His tag (cynomolgus monkey); assay: SPR Biacore 8k+ 25C, antibody captured, FcγR analyte; mean
T1 construct: also called cyFcγRIIa1
T1 chain: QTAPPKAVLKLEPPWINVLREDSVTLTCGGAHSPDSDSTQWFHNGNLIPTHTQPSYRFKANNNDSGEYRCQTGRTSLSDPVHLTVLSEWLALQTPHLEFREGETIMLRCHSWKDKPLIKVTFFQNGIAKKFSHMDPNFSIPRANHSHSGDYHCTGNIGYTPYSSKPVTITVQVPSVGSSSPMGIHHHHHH
Method: (§1) Here, Tremfya (Janssen Pharmaceutical K.K), which is an IgG1 antibody in which the L-chain is a X-chain, was also evaluated as a control. The binding activity was evaluated at 25° C. using as a running buffer 50 mM phosphate buffer, 150 mM NaCl, 0.05 w/v %-P20, pH7.4. As a molecule for ligand capture, CaptureSelect (trademark) Human Fab-lambda Kinetics Biotin Conjugate (ThermoFisher scientific) was immobilized onto a Series S Sensor chip SA sensor chip (Cytiva). An antibody solution prepared with the running buffer was allowed to interact with the SA sensor chip for capturing about 250 RU, or 500 RU, or about 1000 RU, of antibody. Then, hFcγRs and cyFcγRs diluted with the running buffer were allowed to bind to the captured antibodies. […] The chip was regenerated using 10 mM Glycine-HCl (pH 1.5), and measurements were performed by repeatedly capturing the antibodies. The binding activity of each antibody for each FcγR was evaluated by calculating the KD value using the Biacore Insight Evaluation Software with the Steady state model or 1:1 binding model.

[2] = molecular target: T2, cynomolgus monkey FcγRIa extracellular domain with His tag (cynomolgus monkey, UniProt P12314 16-288 (human entry)); assay: as above
T2 construct: also called cyFcγRIa
T2 chain: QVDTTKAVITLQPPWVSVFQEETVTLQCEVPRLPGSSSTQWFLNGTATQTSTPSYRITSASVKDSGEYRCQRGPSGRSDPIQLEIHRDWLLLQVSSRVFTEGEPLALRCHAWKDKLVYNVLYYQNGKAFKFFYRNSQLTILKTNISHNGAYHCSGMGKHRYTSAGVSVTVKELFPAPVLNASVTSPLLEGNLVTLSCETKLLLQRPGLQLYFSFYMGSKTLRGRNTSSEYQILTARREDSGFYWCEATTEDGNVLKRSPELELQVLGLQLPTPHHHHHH
Method: as §1

[3] = molecular target: T3, cynomolgus monkey FcγRIIa3 extracellular domain with His tag (cynomolgus monkey); assay: as above
T3 construct: also called cyFcγRIIa3
T3 chain: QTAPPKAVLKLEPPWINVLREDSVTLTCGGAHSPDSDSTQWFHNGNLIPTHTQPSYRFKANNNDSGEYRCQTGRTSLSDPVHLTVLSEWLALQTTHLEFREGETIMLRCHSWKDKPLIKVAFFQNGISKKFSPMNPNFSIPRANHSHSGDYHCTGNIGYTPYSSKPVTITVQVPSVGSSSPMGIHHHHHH
Method: as §1

[4] = molecular target: T4, cynomolgus monkey FcγRIIa2 extracellular domain with His tag (cynomolgus monkey); assay: as above
T4 construct: also called cyFcγRIIa2
T4 chain: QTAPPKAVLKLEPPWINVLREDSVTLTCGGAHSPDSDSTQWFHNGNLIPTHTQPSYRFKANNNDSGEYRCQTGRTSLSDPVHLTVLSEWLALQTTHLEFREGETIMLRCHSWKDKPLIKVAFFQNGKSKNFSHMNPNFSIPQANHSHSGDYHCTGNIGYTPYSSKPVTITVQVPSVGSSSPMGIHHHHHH
Method: as §1

[5] = molecular target: T5, cynomolgus monkey FcγRIIIa(S) extracellular domain with His tag (cynomolgus monkey, UniProt Q8SPW2 21-206 at identity 1.00)); assay: as above
T5 construct: also called cyFcγRIIIa(S)
T5 chain: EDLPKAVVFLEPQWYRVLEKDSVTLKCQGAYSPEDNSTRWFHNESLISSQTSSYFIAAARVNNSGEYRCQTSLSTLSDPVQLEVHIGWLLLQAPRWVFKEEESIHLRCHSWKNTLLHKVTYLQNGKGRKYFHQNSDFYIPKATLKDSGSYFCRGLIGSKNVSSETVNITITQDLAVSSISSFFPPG
Method: as §1

[6] = molecular target: T6, cynomolgus monkey FcγRIIb extracellular domain with His tag (cynomolgus monkey); assay: as above
T6 construct: also called cyFcγRIIb
T6 chain: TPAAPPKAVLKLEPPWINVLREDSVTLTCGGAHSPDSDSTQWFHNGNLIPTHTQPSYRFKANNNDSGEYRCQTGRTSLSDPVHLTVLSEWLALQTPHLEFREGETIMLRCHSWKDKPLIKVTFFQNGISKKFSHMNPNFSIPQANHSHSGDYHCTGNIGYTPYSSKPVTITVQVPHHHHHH
Method: as §1

[7] = molecular target: T7, cynomolgus monkey FcγRIIIa(R) extracellular domain with His tag (cynomolgus monkey, UniProt Q8SPW2 17-208); assay: as above
T7 construct: also called cyFcγRIIIa(R)
Method: as §1

[8] = molecular target: T8, human FcγRIIIa(V) extracellular domain with C-terminal His tag (human, UniProt P08637 17-208); assay: as above
T8 construct: also called hFcγRIIIa(V)
Method: as §1

[9] = molecular target: T9, human FcγRIIa(H) extracellular domain with C-terminal His tag (human, UniProt P12318 34-217); assay: as above
T9 construct: also called hFcγRIIa(H)
T9 sequence: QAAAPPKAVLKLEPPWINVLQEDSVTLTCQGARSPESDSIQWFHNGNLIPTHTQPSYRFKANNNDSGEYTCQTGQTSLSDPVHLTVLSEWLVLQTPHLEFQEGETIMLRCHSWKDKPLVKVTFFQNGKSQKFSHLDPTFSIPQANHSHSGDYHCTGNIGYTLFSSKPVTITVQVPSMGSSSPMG
Method: as §1

[10] = molecular target: T10, human FcγRIIIa(F) extracellular domain with C-terminal His tag (human, UniProt P08637 17-208); assay: as above
T10 construct: also called hFcγRIIIa(F)
Method: as §1

[11] = molecular target: T11, human FcγRIa extracellular domain with C-terminal His tag (human, UniProt P12314 16-288); assay: as above
T11 construct: also called hFcγRIa
Method: as §1

[12] = molecular target: T12, human FcγRIIa(R) extracellular domain with C-terminal His tag (human, UniProt P12318 34-217); assay: as above
T12 construct: also called hFcγRIIa(R)
T12 chain: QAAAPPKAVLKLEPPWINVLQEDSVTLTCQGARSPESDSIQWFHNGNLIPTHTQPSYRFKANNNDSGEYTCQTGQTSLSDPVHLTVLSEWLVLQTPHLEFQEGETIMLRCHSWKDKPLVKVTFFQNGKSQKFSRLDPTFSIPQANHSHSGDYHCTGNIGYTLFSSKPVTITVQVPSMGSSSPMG
Method: as §1

[13] = molecular target: T13, human FcγRIIb extracellular domain with C-terminal His tag (human, UniProt P31994 43-217); assay: as above
T13 construct: also called hFcγRIIb
T13 sequence: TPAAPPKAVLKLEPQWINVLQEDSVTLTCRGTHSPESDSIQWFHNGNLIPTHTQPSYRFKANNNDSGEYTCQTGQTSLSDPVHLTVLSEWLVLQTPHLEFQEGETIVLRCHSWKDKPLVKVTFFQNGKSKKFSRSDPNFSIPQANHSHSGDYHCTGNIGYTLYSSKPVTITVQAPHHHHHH
Method: as §1

[14] = molecular target: T14, human FcγRIIIa V allotype extracellular domain with C-terminal His-tag (human, UniProt P08637 17-208); assay: SPR Biacore T200, Ab captured via Fab-kappa, pH 7.4, 25C, steady state model
T14 construct: extracellular domain; also called hFcγR IIIa V
Method: (§2) The interaction between the generated antibodies and human FcγRs was analyzed using Biacore T200. 50 mM Na-Phosphate, 150 mM NaCl, 0.05% Tween20 (pH 7.4) was used as the running buffer, and the assay was performed at 25° C. For the sensor chip, Series S SA (GE Healthcare) chips onto which CaptureSelect Human Fab-kappa Kinetics Biotin Conjugate (Thermo Fisher Scientific) was immobilized were used. The antibodies of interest were captured onto these chips and each FcγR diluted in the running buffer was allowed to interact with them. Chips were regenerated with 10 mM Glycine-HCl (pH 1.5) and 25 mM NaOH, and assay was performed by repeatedly capturing antibodies. The dissociation constants KD (mol/L) for FcγRs of each antibody were calculated using Biacore T200 Evaluation Software 2.0, and using the 1:1 Langmuir binding model for FcγRIa and FcγRIIIa and the steady state affinity model for FcγRIIa. For FcγRIIb, the binding amount of FcγRIIb per unit amount of antibody was calculated by correcting the binding amount of FcγRIIb obtained from the sensorgram obtained by the measurement with the amount of antibody captured onto the chip surface.

[15] = molecular target: T15, human FcγRIIb extracellular domain with C-terminal His-tag (human, UniProt P31994 43-217); assay: SPR; FcγRIIb bound amount per unit captured Ab
T15 construct: extracellular domain; also called hFcγR IIb
T15 sequence (looked up): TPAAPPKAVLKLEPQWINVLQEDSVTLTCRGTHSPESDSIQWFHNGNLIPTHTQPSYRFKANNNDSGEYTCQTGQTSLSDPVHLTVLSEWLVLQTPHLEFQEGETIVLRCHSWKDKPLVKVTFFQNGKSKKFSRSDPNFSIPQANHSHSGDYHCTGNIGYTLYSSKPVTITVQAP

[16] = molecular target: T16, human FcγRIIa R allotype extracellular domain with C-terminal His-tag (human, UniProt P12318 34-217); assay: SPR; KD of 04H1389-G1m/04L1615-k0MT divided by KD of variant
T16 construct: extracellular domain; also called hFcγR IIa R
T16 sequence (looked up): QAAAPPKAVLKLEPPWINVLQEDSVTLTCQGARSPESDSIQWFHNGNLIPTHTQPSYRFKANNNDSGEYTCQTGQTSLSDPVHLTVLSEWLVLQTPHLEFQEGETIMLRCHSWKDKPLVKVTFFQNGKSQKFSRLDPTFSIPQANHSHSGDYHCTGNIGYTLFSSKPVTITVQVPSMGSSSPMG

[17] = molecular target: T14, human FcγRIIIa V allotype extracellular …; assay: as above
[18] = molecular target: T17, human FcRn (human, UniProt P55899 24-290; P61769 21-119); assay: as above
T17 construct: Prepared by the method of WO 2010/107110; also called hFcRn

[19] = molecular target: T18, human FcγRIa extracellular domain with C-terminal His-tag (human, UniProt P12314 16-292); assay: as above
T18 construct: extracellular domain; also called hFcγR Ia; hFcγRIa

[20] = molecular target: T19, human FcγRIIa H allotype extracellular domain with C-terminal His-tag (human, UniProt P12318 34-217); assay: as above
T19 construct: extracellular domain; also called hFcγR IIa H
T19 sequence (looked up): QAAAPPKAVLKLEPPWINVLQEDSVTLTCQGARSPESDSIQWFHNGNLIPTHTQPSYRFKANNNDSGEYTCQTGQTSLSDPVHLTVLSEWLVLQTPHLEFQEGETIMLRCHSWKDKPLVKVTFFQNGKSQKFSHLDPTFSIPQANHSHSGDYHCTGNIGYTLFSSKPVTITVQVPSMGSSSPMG

[21] = molecular target: T17, human FcRn; assay: SPR Biacore T200, Ab captured via Fab-kappa, pH 6.0, steady state
[22] = molecular target: T16, human FcγRIIa R allotype extracellular …; assay: SPR Biacore T200, Ab captured via Fab-kappa, pH 7.4, 25C;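 also: each FcγR flowed as analyte over the captured antibodies, KD derived by 1:1 Langmuir or steady-state affinity fitting depending on the receptor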
Method: as §2

[23] = molecular target: T18, human FcγRIa extracellular domain with …; assay: as above
Method: as §2

[24] = molecular target: T19, human FcγRIIa H allotype extracellular …; assay: as above
Method: as §2

[25] = molecular target: T15, human FcγRIIb extracellular domain with …; assay: SPR; binding amount divided by that of 04H1389-G1m/04L1615-k0MT

T18 sequence (P12314 16-292): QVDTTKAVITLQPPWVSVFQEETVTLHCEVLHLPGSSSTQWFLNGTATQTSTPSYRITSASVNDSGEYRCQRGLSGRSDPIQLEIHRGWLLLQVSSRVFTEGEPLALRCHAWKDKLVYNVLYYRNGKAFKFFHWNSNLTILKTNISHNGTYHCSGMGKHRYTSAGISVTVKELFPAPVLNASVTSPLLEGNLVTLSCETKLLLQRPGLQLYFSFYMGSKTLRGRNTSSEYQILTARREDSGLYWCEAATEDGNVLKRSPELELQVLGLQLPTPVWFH
T14 sequence (P08637 17-208 F176V): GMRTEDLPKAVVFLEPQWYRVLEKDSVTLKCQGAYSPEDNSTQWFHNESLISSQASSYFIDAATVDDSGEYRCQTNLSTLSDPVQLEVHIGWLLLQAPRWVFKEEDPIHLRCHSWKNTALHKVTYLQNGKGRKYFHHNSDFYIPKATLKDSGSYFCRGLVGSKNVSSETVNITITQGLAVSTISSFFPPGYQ
T17 sequence (P55899 24-290 limits assumed, chain 1 of 2): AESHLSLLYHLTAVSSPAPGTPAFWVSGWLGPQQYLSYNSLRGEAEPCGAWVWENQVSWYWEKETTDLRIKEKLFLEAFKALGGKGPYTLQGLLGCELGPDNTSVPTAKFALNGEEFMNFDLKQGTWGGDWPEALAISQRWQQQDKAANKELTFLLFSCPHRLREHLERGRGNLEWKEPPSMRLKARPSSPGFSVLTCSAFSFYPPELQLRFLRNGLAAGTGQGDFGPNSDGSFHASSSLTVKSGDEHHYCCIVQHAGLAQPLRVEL
T17 sequence (P61769 21-119 limits assumed, chain 2 of 2): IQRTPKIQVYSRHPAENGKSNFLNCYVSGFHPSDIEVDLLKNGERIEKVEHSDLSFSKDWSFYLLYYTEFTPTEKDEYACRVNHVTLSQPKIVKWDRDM
T10 sequence (P08637 other isoform, or with tags, fused parts or gaps): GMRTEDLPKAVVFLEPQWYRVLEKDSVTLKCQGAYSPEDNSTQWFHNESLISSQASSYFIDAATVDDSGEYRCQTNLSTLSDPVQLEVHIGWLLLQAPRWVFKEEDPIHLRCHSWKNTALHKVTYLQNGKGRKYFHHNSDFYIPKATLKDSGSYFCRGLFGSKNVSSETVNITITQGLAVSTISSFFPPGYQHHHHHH
T8 sequence (P08637 other isoform, or with tags, fused parts or gaps): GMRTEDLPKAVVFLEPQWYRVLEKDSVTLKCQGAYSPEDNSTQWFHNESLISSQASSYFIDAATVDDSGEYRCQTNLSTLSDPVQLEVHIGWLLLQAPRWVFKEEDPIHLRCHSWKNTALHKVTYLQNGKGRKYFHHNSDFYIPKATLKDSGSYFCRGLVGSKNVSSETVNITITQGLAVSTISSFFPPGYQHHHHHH
T7 sequence (Q8SPW2 other isoform, or with tags, fused parts or gaps): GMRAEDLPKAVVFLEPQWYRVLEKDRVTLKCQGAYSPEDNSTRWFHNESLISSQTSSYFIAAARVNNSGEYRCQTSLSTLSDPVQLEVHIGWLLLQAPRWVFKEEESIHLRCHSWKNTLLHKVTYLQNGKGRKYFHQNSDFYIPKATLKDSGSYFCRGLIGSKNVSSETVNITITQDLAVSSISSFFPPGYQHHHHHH

B1: 04H1654-KT498/04L1610-lam1//04H1656-HT518/04L1610-lam1 (antibody, human IgG1, lambda)
heavy 1: QVQLVESGGGVVQPGGSLRLSCAASGFTFSSKTMNWVRQAPGKGLEWVSSISTQSHYIYYARSVRGRFTISRDNAKNSLYLQMNSLRAEDTAVYYCARYGKREDMLWVFDYWGQGTLVTVSSASTKGPSVFPLAPSSKSTSGGTAALGCLVKDYFPEPVTVSWNSGALTSGVHTFPAVLQSSGLYSLSSVVTVPSSSLGTQTYICNVNHKPSNTKVDKRVEPKSCDKTHTCPPCPAPEFQWGPMVFLFPPKPKDVLMISRTPEVTCVVVDVSDEEPEVKFNWYVDGVEVHNAKTKPREEQYNATYRVVSVLPVLHQDWLNGKEYKCKVSNKALPMPIEKTISKAKGQPREPQVYTLPPSRKEMTKNQVSLTCLVKGFYPSDIAVEWESNGQPENNYKTTPPVLDSDGSFFLYSKLTVDKSRWQQGNVFSCSVMHEALHNHYTQKSLSLSP
heavy 2: QVQLVESGGGVVQPGGSLRLSCAASGFTFSSKTMNWVRQAPGKGLEWVSSISTQSHYIYYAESVRGRFTISRDNAKNSLYLQMNSLRAEDTAVYYCARYGAREDMLWVFDYWGQGTLVTVSSASTKGPSVFPLAPSSKSTSGGTAALGCLVKDYFPEPVTVSWNSGALTSGVHTFPAVLQSSGLYSLSSVVTVPSSSLGTQTYICNVNHKPSNTKVDKRVEPKSCDKTHTCPPCPAPELLGGPSVFLFPPKPKDVLMISRTPEVTCVVVDVSHEEPEVKFNWYVDGVEVHNAKTKPREEQYNATYRVVSVLPVLHQDWLNGKEYKCKVSNDALPMPIEETISKAKGQPREPQVYTLPPSREEMTKNQVSLTCLVKGFYPSDIAVEWESNGQPENNYKTTPPVLDSDGSFFLYSKLTVDKSRWQQGNVFSCSVMHEALHNHYTQESLSLSP
light: QSALTQPPSASGSPGQSVTISCEGPSTGVGDYNWVHWYQQHPGKAPKLMIYFTSKKPSGVPDRFSGSKSGNTASLTVSGLQAEDEADYYCQTYAAPLGPMFGGGTKLTVLGQPKAAPSVTLFPPSSEELQANKATLVCLISDFYPGAVTVAWKADSSPVKAGVETTTPSKQSNNKYAASSYLSLTPEQWKSHRSYSCQVTHEGSTVEKTVAPTECS
notes: also called SW1610-ART12
Kd [1]: 540 nM | Kd [2]: 0.0106 nM | Kd [3]: 5290 nM | Kd [4]: 2320 nM | Kd [5]: 0.933 nM | Kd [6]: 2520 nM | Kd [7]: 1.01 nM | Kd [8]: 1.82 nM | Kd [9]: 343 nM | Kd [10]: 4.13 nM | Kd [11]: 0.0387 nM | Kd [12]: 1790 nM | Kd [13]: 38800 nM

B2: 04H1389-G1m/04L1615-k0MT (antibody, human IgG1, kappa)
heavy: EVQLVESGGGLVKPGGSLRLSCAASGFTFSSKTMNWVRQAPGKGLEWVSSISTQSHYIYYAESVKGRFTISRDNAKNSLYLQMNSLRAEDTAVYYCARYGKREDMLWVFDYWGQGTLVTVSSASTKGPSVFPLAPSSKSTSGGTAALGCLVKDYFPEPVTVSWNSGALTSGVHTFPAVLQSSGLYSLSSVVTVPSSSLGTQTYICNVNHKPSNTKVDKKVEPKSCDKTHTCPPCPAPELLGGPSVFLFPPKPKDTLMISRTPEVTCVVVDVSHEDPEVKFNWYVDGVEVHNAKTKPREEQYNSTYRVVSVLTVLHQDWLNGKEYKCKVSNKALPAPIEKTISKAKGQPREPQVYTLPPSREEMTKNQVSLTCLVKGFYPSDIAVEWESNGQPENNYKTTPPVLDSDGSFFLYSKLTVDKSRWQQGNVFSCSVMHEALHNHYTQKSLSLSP
light: DIVMTQSPLSLPVTPGEPASISCQGPSTGVGDYNYVHWYQQKPGQAPRLLIYFTSKKPSGVPDRFSGSGSGTDFTLKISRVEAEDVGVYYCQTYAAPLGPMFGQGTKLEIKRTVAAPSVFIFPPSDEQLKSGTASVVCLLNNFYPREAKVQWKVDNALQSGNSQESVTEQDSKDSTYSLSSTLTLSKADYEKHKVYACEVTHQGLSSPVTKSFNRGEC
notes: Homodimer used for comparison; also called 04H1389-G1m/04L16150k0MT
Kd [14]: 910 nM | Binding amount [15]: 0.011 | Relative value to KD between G1m and hFcγRs [16]: 1 | Relative value to KD between G1m and hFcγRs [17]: 1 | Relative value to KD between G1m and hFcRn [18]: 1 | Relative value to KD between G1m and hFcγRs [19]: 1 | Relative value to KD between G1m and hFcγRs [20]: 1 | Kd [21]: 1300 nM | Kd [22]: 1500 nM | Kd [23]: 0.045 nM | Kd [24]: 1100 nM | Relative binding amount [25]: 1
